{"source": "paper PMC12506534", "about": "(The Journal of Biological Chemistry, 2025)", "molecular_target": "the molecule itself", "test": "SEC; oligomeric forms of the separately purified proteins; Superdex 200 Increase 10/300 GL, 20 mM HEPES pH 7.5, 150 mM NaCl, 1 mM DTT (Fig. S1, A and B)", "note": "Values joined by “and” are separate entries in the source; they are usually repeats but may differ in a detail not shown here. Identical values can stand only once."}
{"protein": "Get3(D57N), Saccharomyces cerevisiae (enzyme, S. cerevisiae, UniProt Q12154 1-354, looked up, Get3, S. cerevisiae, UniProt Q12154, full length, with D57N; Purified in dimeric and tetrameric forms; the dimer was used to form the complex with Get4/5; ATP and MgCl2 were present in the complex, cryo-EM and MST samples; also called D57N variant; ATPase-deficient D57N variant; source: E. coli Rosetta (DE3), purified (Ni-NTA, SEC)) MDLTVEPNLHSLITSTTHKWIFVGGKGGVGKTTSSCSIAIQMALSQPNKQFLLISTNPAHNLSDAFGEKFGKDARKVTGMNNLSCMEIDPSAALKDMNDMAVSRANNNGSDGQGDDLGSLLQGGALADLTGSIPGIDEALSFMEVMKHIKRQEQGEGETFDTVIFDTAPTGHTLRFLQLPNTLSKLLEKFGEITNKLGPMLNSFMGAGNVDISGKLNELKANVETIRQQFTDPDLTTFVCVCISEFLSLYETERLIQELISYDMDVNSIIVNQLLFAENDQEHNCKRCQARWKMQKKYLDQIDELYEDFHVVKMPLCAGEIRGLNNLTKFSQFLNKEYNPITDGKVIYELEDKE", "values": [{"measurement": "stoichiometry N", "value": "2 and 4"}]}
